In patent US20230293738A1 (Y MABS THERAPEUTICS, published 2023):
Changes are numbered by the printed parent chain. Where “and” joins values, the source holds several entries; their conditions need not be identical. Equal values may be shown once.

What was measured:
[1] = molecular target: T1, human 4Ig-B7H3 (B7H3-4Ig-His) (human, UniProt Q5ZPR3 29-466); assay: SPR, Biacore T200, 4Ig-B7H3-His on CM5 chip, 1:1 fit
T1 construct: Recombinant His-tagged protein immobilised on a CM5 chip; also called 41g-B7H3; human 4Ig-B7-H3 (dominant isoform); not shown: His tag
T1 sequence: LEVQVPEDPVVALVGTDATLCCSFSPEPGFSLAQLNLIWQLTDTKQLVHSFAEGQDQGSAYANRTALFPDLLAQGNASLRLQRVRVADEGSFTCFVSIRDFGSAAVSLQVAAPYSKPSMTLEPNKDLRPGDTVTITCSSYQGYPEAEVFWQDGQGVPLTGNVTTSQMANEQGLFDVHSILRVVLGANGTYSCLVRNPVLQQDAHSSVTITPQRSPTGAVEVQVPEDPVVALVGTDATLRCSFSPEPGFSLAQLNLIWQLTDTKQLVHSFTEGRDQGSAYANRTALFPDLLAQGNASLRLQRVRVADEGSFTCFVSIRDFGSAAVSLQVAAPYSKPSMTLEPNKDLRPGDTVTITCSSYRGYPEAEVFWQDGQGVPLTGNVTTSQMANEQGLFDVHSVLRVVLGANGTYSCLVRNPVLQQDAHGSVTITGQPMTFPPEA
Method: (§1) Both human B7H3 41g and 21g proteins were dissolved in PBS (Phosphate-Buffered Saline) to make 0.1 mg/ml stock solution and stored in −80° C. B7-H3 proteins were immobilized onto the CM5 sensor chip using Amine Coupling Kit. Both proteins were diluted to 10 ug/ml with 10 mM Sodium acetate, pH 5.0. […] A blank immobilized surface was used as a control
(§2) The data were analyzed by the 1:1 fitting model and default parameter setting for the rate constants using the Biacore T200 Evaluation Software, and the apparent association on rate constant (kon, ka), dissociation off rate constant (koff, kd) and equilibrium dissociation constant (KD=kd/ka) were calculated.

[2] = molecular target: T2, human 2Ig-B7H3 (B7H3-2Ig-His) (human, UniProt Q5ZPR3 29-466); assay: SPR, Biacore T200, 2Ig-B7H3-His on CM5 chip, 1:1 fit; * beyond fitting limits; unconjugated 8H9, lot S219, Table 3 run
T2 construct: Recombinant His-tagged protein immobilised on a CM5 chip; also called 21g-B7H3; B7H3-21g-His; not shown: His tag
T2 sequence: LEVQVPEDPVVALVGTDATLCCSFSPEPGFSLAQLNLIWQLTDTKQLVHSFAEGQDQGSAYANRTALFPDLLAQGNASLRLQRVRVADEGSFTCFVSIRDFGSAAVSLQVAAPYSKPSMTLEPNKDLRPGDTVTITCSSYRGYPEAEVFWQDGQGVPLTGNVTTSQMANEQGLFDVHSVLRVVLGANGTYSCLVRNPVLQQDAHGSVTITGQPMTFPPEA

[3] = molecular target: T3, recombinant monkey B7-H3 (monkey); assay: SPR, triplicate
T3 chain: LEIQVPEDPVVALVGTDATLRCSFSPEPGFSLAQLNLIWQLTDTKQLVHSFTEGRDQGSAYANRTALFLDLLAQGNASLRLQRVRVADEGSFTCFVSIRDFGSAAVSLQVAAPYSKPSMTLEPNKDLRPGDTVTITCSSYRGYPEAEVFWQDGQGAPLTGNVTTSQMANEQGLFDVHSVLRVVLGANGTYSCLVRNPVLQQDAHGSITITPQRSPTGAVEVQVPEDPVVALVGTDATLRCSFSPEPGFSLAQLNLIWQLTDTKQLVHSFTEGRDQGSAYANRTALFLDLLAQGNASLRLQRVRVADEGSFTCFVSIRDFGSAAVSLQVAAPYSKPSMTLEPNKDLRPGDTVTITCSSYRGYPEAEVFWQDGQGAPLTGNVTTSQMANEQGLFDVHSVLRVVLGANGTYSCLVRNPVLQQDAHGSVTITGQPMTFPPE

[4] = molecular target: T4, recombinant mouse B7-H3 (mouse, UniProt Q8VE98 29-244, limits assumed); assay: SPR, triplicate
T4 sequence (looked up): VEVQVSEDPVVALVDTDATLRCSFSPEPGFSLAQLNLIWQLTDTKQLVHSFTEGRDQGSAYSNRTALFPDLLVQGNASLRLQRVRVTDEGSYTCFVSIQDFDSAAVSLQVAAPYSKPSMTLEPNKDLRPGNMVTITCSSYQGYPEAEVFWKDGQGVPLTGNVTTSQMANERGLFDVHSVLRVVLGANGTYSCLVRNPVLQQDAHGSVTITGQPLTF

[5] = molecular target: T5, recombinant rat B7-H3 (rat, UniProt Q7TPB4 29-244, limits assumed); assay: SPR, triplicate
T5 sequence (looked up): T4 sequence (looked up) with A33R, S62A, N131D, V156L, L214M

[6] = molecular target: recombinant human B7-H3 (Example 3) (human) (UniProt Q5ZPR3); assay: SPR, triplicate
[7] = molecular target: T2, human 2Ig-B7H3 (B7H3-2Ig-His); assay: SPR, Biacore T200, 2Ig-B7H3-His on CM5 chip, 1:1 fit; * beyond fitting limits
Method: as §1
(§3) Binding Assays: [0143] 1. Antibodies were diluted in HBS-EP buffer (10 mM HEPES, 150 mM NaCl, 3 mM EDTA, 0.05% Surfactant P20, pH 7.4) at varying concentrations (25-50-100-200-400 nM) prior to analysis. […] 2. Samples (60 ul) were injected over the sensor surface at a flow rate of 30 ul/min over 2 min. [0145] 3. Following completion of the association phase, dissociation was monitored in HBS-EP buffer for 10 min at the same flow rate. […] 4. At the end of each cycle, the surface was regenerated using 10 mM NaOH at a flow rate of 50 ul/min over 2×15 sec.
as §2

[8] = molecular target: T2, human 2Ig-B7H3 (B7H3-2Ig-His); assay: SPR, Biacore T200, 2Ig-B7H3-His on CM5 chip, 1:1 fit; unconjugated 8H9, lot S219, Table 5 run
Method: as §1, §3

[9] = molecular target: T2, human 2Ig-B7H3 (B7H3-2Ig-His); assay: SPR, Biacore T200, 2Ig-B7H3-His on CM5 chip, 1:1 fit; unconjugated 8H9, lot S219, Table 3 run

B1: 8H9 antibody comprising a light chain according to SEQ ID No.: 2 and heavy chain according to SEQ ID No.: 1 (antibody, mouse IgG1, kappa, V domains shown)
VH: QVQLQQSGAELVKPGASVKLSCKASGYTFTNYDINWVRQRPEQGLEWIGWIFPGDGSTQYNEKFKGKATLTTDTSSSTAYMQLSRLTSEDSAVYFCARQTTATWFAYWGQGTLVTVSA
VL: DIVMTQSPATLSVTPGDRVSLSCRASQSISDYLHWYQQKSHESPRLLIKYASQSISGIPSRFSGSGSGSDFTLSINSVEPEDVGVYYCQNGHSFPLTFGAGTKLELKR
notes: Unconjugated mouse IgG1 mAb; also called m8H9; murine 8H9
For B1, the Kd [1] was 3.18 nM and 3.13 nM, the koff [1] was 9.11e-05 s⁻¹ and 8.73e-05 s⁻¹ and the kon [1] was 28600 M⁻¹ s⁻¹ and 27900 M⁻¹ s⁻¹. For the same binder, the “t ½” value [1] was 2.11 h and 2.21 h, the koff [2] was under 1e-05 s⁻¹ and the Kd [3] was 0.0016 nM. For the same binder, the koff [3] was 1e-05 s⁻¹, the kon [3] was 6.5e+06 M⁻¹ s⁻¹ and the binding result [4] was “no binding (tested: 3 µg/mL)”. The binding result [5] was “no binding (tested: 3 µg/mL)”, the Kd [6] was 0.0011 nM and the koff [6] was 1e-05 s⁻¹. For the same binder, the kon [6] was 8.9e+06 M⁻¹ s⁻¹, the koff [7] was 2.38e-07 s⁻¹ and 5.68e-07 s⁻¹ and the Kd [8] was under 0.212 nM. It also gave a Kd [9] of under 0.244 nM.
